Experiment [1] has as its target T1, human DLL4 on 293G-human DLL4 cells (human, UniProt Q9NR61 27-685).
T1 construct: whole, on cells; no method paragraph describes this FACS assay
Description: FACS: inhibition of Notch1 binding to 293G-human DLL4 cells (competitor Notch1).

The target of experiment [2] is T2, human DLL4 extracellular domain (human, UniProt Q9NR61 27-529, biotin label in the Notch-1 competition ELISA (sites not given)).
T2 construct: extracellular domain; also called biotin labeled human DLL4 extracellular domain
Nature of the experiment: competition ELISA: 14 nM biotin-labelled human DLL4 ECD pre-mixed with DVD-Ig, then on coated human Notch-1 (competitor Notch-1). A general note: An ELISA detects its analyte on a solid surface through an enzyme-linked reagent.

Experiment [3] concerns the target T2, human DLL4 extracellular domain. Nature of the experiment: cell-based or functional assay.
In experiment [4] the target is T3, VEGF (biotinylated VEGF; VEGF165) (UniProt P15692-4 27-191, biotinylated (sites not given)).
T3 construct: the method paragraph says only 'biotinylated VEGF'
Nature of the experiment: competition ELISA: DVD-Ig pre-incubated with 2 nM biotinylated VEGF, then on coated VEGFR1 ECD-Fc (competitor VEGFR1-Fc).

A further experiment addresses T4, VEGF (UniProt P15692 27-191, limits assumed).
T4 construct: Bought antigen coated on the ELISA plate; also called vascular endothelial growth factor
Nature of the experiment: direct bind ELISA, antigen on plate; C-terminal VD.

The target of the next experiment is T5, PlGF (UniProt P49763-2 21-149, limits assumed).
T5 construct: Bought antigen coated on the ELISA plate; also called Placental GF; placental growth factor
T5 sequence (looked up): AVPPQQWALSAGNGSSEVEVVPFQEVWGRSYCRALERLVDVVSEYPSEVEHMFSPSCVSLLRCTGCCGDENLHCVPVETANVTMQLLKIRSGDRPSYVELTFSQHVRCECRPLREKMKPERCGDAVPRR
Description: direct bind ELISA, antigen on plate; N-terminal VD.

T4 sequence (P15692 other isoform, or with tags, fused parts or gaps limits assumed): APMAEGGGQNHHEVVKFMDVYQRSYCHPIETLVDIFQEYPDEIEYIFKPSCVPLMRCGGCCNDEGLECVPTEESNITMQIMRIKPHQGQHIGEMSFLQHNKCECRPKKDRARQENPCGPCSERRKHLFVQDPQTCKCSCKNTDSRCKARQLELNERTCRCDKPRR
T3 sequence (P15692 other isoform, or with tags, fused parts or gaps limits assumed): as above
Description for PlGF: Enzyme Linked Immunosorbent Assays to screen for antibodies that bind a desired target antigen were performed as follows. […] Plates were washed four times with PBS containing 0.02% Tween 20. Plates were blocked by the addition of 300 μL/well blocking solution (non-fat dry milk powder, various retail suppliers, diluted to 2% in PBS) for ½ hour at room temperature. Plates were washed four times after blocking with PBS containing 0.02% Tween 20.
Plates were washed 4 times with PBS containing 0.02% Tween 20.

B1: DVD470 (VEGF (seq. 1) N-terminal / DLL4 (seq. 1) C-terminal DVD-Ig, long HC linker, long LC linker) (bispecific antibody, human IgG1, kappa)
heavy: not shown
light: DIQMTQSPSSLSASVGDRVTITCSASQDISNYLNWYQQKPGKAPKVLIYFTSSLHSGVPSRFSGSGSGTDFTLTISSLQPEDFATYYCQQYSTVPWTFGQGTKVEIKRTVAAPSVFIFPPDIQMTQSPSSLSASVGDRVTITCRASQDVSTAVAWYQQKPGKAPKLLIYSASFLYSGVPSRFSGSGSGTDFTLTISSLQPEDFATTYYCQQSYTGTVTFGQGTKVEIKRTVAAPSVFIFPPSDEQLKSGTASVVCLLNNFYPREAKVQWKVDNALQSGNSQESVTEQDSKDSTYSLSSTLTLSKADYEKHKVYACEVTHQGLSSPVTKSFNRGEC
notes: also called DVD470H/DVD470L
In the case of B1, the figures for the IC50 in experiment [1], in experiment [2] and in experiment [4] were 38.3 nM, 2.82 nM and 2.7 nM, respectively. The “DVD-Ig Inhibition of sFlt1 (IC50, nM)” value in experiment [3] came to 1.02 nM.

B2: DVD599 (bispecific antibody, human IgG1, kappa)
heavy: not shown
light: DIVLTQSPDSLAVSLGERVTMNCKSSQSLLNSGMRKSFLAWYQQKPGQSPKLLIYWASTRESGVPDRFTGSGSGTDFTLTISSVQAEDVAVYYCKQSYHLFTFGSGTKLEIKRTVAAPSVFIFPPDIQMTQSPSSLSASVGDRVTITCRASQVIRRSLAWYQQKPGKAPKLLIYAASNLASGVPSRFSGSGSGTDFTLTISSLQPEDFATYYCQQSNTSPLTFGQGTKVEIKRTVAAPSVFIFPPSDEQLKSGTASVVCLLNNFYPREAKVQWKVDNALQSGNSQESVTEQDSKDSTYSLSSTLTLSKADYEKHKVYACEVTHQGLSSPVTKSFNRGEC
notes: DVD-Ig, N-terminal PlGF (AB047), C-terminal VEGF (AB071); HC linker short, LC linker long; also called DVD599VH; DVD599VL
Turning to B2, the figures for the EC50 with VEGF and with PlGF were 664 nM and 0.23 nM, respectively.

B3: DVD476 (VEGF (seq. 1) N-terminal / DLL4 (seq. 1) C-terminal DVD-Ig, long HC linker, short LC linker) (bispecific antibody, human IgG1, kappa)
heavy: not shown
light: DIQMTQSPSSLSASVGDRVTITCSASQDISNYLNWYQQKPGKAPKVLIYFTSSLHSGVPSRFSGSGSGTDFTLTISSLQPEDFATYYCQQYSTVPWTFGQGTKVEIKRTVAAPDIQMTQSPSSLSASVGDRVTITCRASQDVSTAVAWYQQKPGKAPKLLIYSASFLYSGVPSRFSGSGSGTDFTLTISSLQPEDFATTYYCQQSYTGTVTFGQGTKVEIKRTVAAPSVFIFPPSDEQLKSGTASVVCLLNNFYPREAKVQWKVDNALQSGNSQESVTEQDSKDSTYSLSSTLTLSKADYEKHKVYACEVTHQGLSSPVTKSFNRGEC
notes: also called DVD476H/DVD476L
Take B3: the IC50 was determined as 15.1 nM in experiment [1], 4.9 nM in experiment [2] and 2.4 nM in experiment [4]. The “DVD-Ig Inhibition of sFlt1 (IC50, nM)” value in experiment [3] came to 1.68 nM.

B4: DVD597 (bispecific antibody, human IgG1, kappa)
heavy: not shown
light: DIVLTQSPDSLAVSLGERVTMNCKSSQSLLNSGMRKSFLAWYQQKPGQSPKLLIYWASTRESGVPDRFTGSGSGTDFTLTISSVQAEDVAVYYCKQSYHLFTFGSGTKLEIKRTVAAPSVFIFPPDIQMTQSPSSLSASVGDRVTITCRASQDVSTAVAWYQQKPGKAPKLLIYSASFLYSGVPSRFSGSGSGTDFTLTISSLQPEDFATYYCQQSYTTPPTFGQGTKVEIKRTVAAPSVFIFPPSDEQLKSGTASVVCLLNNFYPREAKVQWKVDNALQSGNSQESVTEQDSKDSTYSLSSTLTLSKADYEKHKVYACEVTHQGLSSPVTKSFNRGEC
notes: HC linker short, LC linker long; also called DVD597VH; DVD597VL
For the molecule B4, the EC50 was determined as 31.1 nM with VEGF and 0.17 nM with PlGF.

B5: DVD591 (bispecific antibody, human IgG1, kappa)
heavy: not shown
light: DIVLTQSPDSLAVSLGERVTMNCKSSQSLLNSGMRKSFLAWYQQKPGQSPKLLIYWASTRESGVPDRFTGSGSGTDFTLTISSVQAEDVAVYYCKQSYHLFTFGSGTKLEIKRTVAAPDIQMTQSPSSLSASVGDRVTITCRASQVIRRSLAWYQQKPGKAPKLLIYAASNLASGVPSRFSGSGSGTDFTLTISSLQPEDFATYYCQQSNTSPLTFGQGTKVEIKRTVAAPSVFIFPPSDEQLKSGTASVVCLLNNFYPREAKVQWKVDNALQSGNSQESVTEQDSKDSTYSLSSTLTLSKADYEKHKVYACEVTHQGLSSPVTKSFNRGEC
notes: DVD-Ig, N-terminal PlGF (AB047), C-terminal VEGF (AB071); HC linker long, LC linker short; also called DVD591VH; DVD591VL
As for B5, the values for the EC50 with VEGF and in the experiment with PlGF were 1170 nM and 0.13 nM, respectively.

Usually IC50 stands for the concentration that gives 50% inhibition. Low values mean greater potency in that assay, high ones weaker potency in that assay. For orientation: EC50 means the concentration that produces a half-maximal response. Low readings indicate a more potent agent, high ones a less potent agent.

For the origin of these results see patent US20100260668A1 (published 2010).
